Target: the molecule itself
Assay: SDS-PAGE; recombinant PLB in isolation, solubilised in LDS sample buffer; 4-12% Bolt Bis-Tris Plus gel, MES SDS running buffer; Coomassie stain

| Protein | stoichiometry N |
| --- | --- |
| phospholamban with a deletion of arginine at position 14 (PLBR14Δ), full length, recombinant (natural protein, human, UniProt P26678 1-52, looked up, phospholamban, human, full length, non-acetylated, with the deletion of Arg14 that is associated with human dilated cardiomyopathy; Made from the human PLBWT DNA by site-directed ligase-independent mutagenesis; A synthetic full-length PLBR14Δ was also bought (Activotec), but the experiments written here name the recombinant protein; also called Rec R14Δ; PLBR14D; source: E. coli C41(DE3), MBP …) MEKVQYLTRSAIRASTIEMPQQARQKLQNLFINFCLILICLLLICIIVMLL | 5 |
| wild type phospholamban (PLBWT), full length, recombinant (natural protein, human, UniProt P26678 1-52, looked up, phospholamban, human, 52 amino acids, full length, non-acetylated; Untagged after TEV cleavage; also called Rec WT; source: E. coli C41(DE3), MBP fusion (pMAL c2X), purified on amylose, cleaved with TEV protease, chloroform/methanol extraction; not shown: MBP, N-terminal, cleaved) MEKVQYLTRSAIRRASTIEMPQQARQKLQNLFINFCLILICLLLICIIVMLL | 5 |

— publication PMC4165587, “Comparison of the Structure and Function of Phospholamban and the Arginine-14 Deficient Mutant Associated with Dilated Cardiomyopathy” (PLoS ONE, 2014)
